Results taken from PMC10630519, “Structural insights into the modulation of coronavirus spike tilting and infectivity by hinge glycans” (Nature Communications, 2023).

Biological target: the molecule itself
Experiment: cryo-EM structure; cryoET and subtomogram averaging of spikes on vitrified, chemically unfixed HCoV-NL63 virions in NTE buffer (20 mM Tris pH 8.0, 120 mM NaCl, 1 mM EDTA); 18,356 spike subvolumes; C3 symmetry imposed; focused classification of RBD and domain 0

B1: human coronavirus NL63 (HCoV-NL63) spike glycoprotein (S) (natural protein)
chain: CNSNANLSMLQLGVPDNSSTIVTGLLPTHWFCANQSTSVYSANGFFYIDVGNHRSAFALHTGYYDANQYYIYVTNEIGLNASVTLKICKFSRNTTFDFLSNASSSFDCIVNLLFTEQLGAPLGITISGETVRLHLYNVTRTFYVPAAYKLTKLSVKCYFNYSCVFSVVNATVTVNVTTHNGRVVNYTVCDDCNGYTDNIFSVQQDGRIPNGFPFNNWFLLTNGSTLVDGVSRLYQPLRLTCLWPVPGLKSSTGFVYFNATGSDVNCNGYQHNSVVDVMRYNLNFSANSLDNLKSGVIVFKTLQYDVLFYCSNSSSGVLDTTIPFGPSSQPYYCFINSTINTTHVSTFVGILPPTVREIVVARTGQFYINGFKYFDLGFIEAVNFNVTTASATDFWTVAFATFVDVLVNVSATNIQNLLYCDSPFEKLQCEHLQFGLQDGFYSANFLDDNVLPETYVALPIYYQHTDINFTATASFGGSCYVCKPHQVNISLNGNTSVCVRTSHFSIRYIYNRVKSGSPGDSSWHIYLKSGTCPFSFSKLNNFQKFKTICFSTVEVPGSCNFPLEATWHYTSYTIVGALYVTWSEGNSITGVPYPVSGIREFSNLVLNNCTKYNIYDYVGTGIIRSSNQSLAGGITYVSNSGNLLGFKNVSTGNIFIVTPCNQPDQVAVYQQSIIGAMTAVNESRYGLQNLLQLPNFYYVSNGGNNCTTAVMTYSNFGICADGSLIPVRPRNSSDNGISAIITANLSIPSNWTTSVQVEYLQITSTPIVVDCATYVCNGNPRCKNLLKQYTSACKTIEDALRLSAHLETNDVSSMLTFDSNAFSLANVTSFGDYNLSSVLPQRNIRSSRIAGRSALEDLLFSKVVTSGLGTVDVDYKSCTKGLSIADLACAQYYNGIMVLPGVADAERMAMYTGSLIGGMVLGGLTSAAAIPFSLALQARLNYVALQTDVLQENQKILAASFNKAINNIVASFSSVNDAITQTAEAIHTVTIALNKIQDVVNQQGSALNHLTSQLRHNFQAISNSIQAIYDRLDSIQADQQVDRLITGRLAALNAFVSQVLNKYTEVRGSRRLAQQKINECVKSQSNRYGFCGNGTHIFSIVNSAPDGLLFLHTVLLPTDYKNVKAWSGICVDGIYGYVLRQPNLVLYSDNGVFRVTSRVMFQPRLPVLSDFVQIYNCNVTFVNISRVELHTVIPDYVDVNKTLQEFAQNLPKYVKPNFDLTPFNLTYLNLSSELKQLEAKTASLFQTTVELQGLIDQINSTYVDLKLLNRFENYIKWPWWVWLIISVVFVVLLSLLVFCCLSTGCCGCCNCLTSSMRGCCDCGSTKLPYYEFEKVHVQ
modifications: N-linked glycans at 39 N-glycosylation sites (among them N240, N354, N358, N426, N486, N506, N512, N749, N844, N852, N1111, N1196, N1201, N1218, N1242, N1247, N1277)
notes: Spike glycoprotein S of human coronavirus NL63 (virus from BEI Resources NR-470), full-length S in the viral envelope; not cleaved at S1/S2 (single band of about 250 kD); Native membrane-anchored trimer on virions; The model covers the crown, residues 1-1224; the stalk (1216-1297) is only a predicted model; also called S trimer; S protomer; source: no chemical fixation
  stoichiometry N: 3
